The supplement of paper PMC10567573

B1: SMG5 (parent)
chain: QEKLQVLMAEGLLPAVKVFLDWLR

Variants of: B1
Assay: protein stability index of a GFP-peptide fusion (GPS, HEK-293T) (PSI 1-6); higher = more stable
Settings: c terminus: a fixed tail appended
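Note: lentivirally expressed fusions sorted by FACS into six bins by GFP to DsRed ratio, PSI derived from sequencing read proportions per bin multiplied by bin number.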

Variant	protein stability index
QEKLQVLMAEGLLPAVKSFLDWLR	3.52
QEKLQVLMAEGLLPAVKHFLDWLR	3.52
QEKLQVLMAEGLLPAVKQFLDWLR	3.07
QEKLQVLMAEGLLPAVKEFLDWLR	2.37
QEKLQVLMAEGLLPAVKFFLDWLR	1.94
QEKLQVLMAEGLLPAVKAFLDWLR	2.19
QEKLQVLMAEGLLPAVKGFLDWLR	3.13
QEKLQVLMAEGLLPAVKDFLDWLR	2.44
QEKLQVLMAEGLLPAVKTFLDWLR	3.25
QEKLQVLMAEGLLPAVKPFLDWLR	1.91
QEKLQVLMAEGLLPAVKMFLDWLR	2.59
QEKLQVLMAEGLLPAVKYFLDWLR	3.16
QEKLQVLMAEGLLPAVKCFLDWLR	2.37
QEKLQVLMAEGLLPAVKLFLDWLR	1.99
QEKLQVLMAEGLLPAVKWFLDWLR	1.64
QEKLQVLMAEGLLPAVKRFLDWLR	3.86
QEKLQVLMAEGLLPAVKIFLDWLR	2.82
QEKLQVLMAEGLLPAVKKFLDWLR	2.05
QEKLQVLMAEGLSPAVKVFLDWLR	2.78
QEKLQVLMAEGLWPAVKVFLDWLR	2.62
QEKLQVLMAEGLMPAVKVFLDWLR	2.27
QEKLQVLMAEGLGPAVKVFLDWLR	2.17
QEKLQVLMAEGLCPAVKVFLDWLR	2.25
QEKLQVLMAEGLDPAVKVFLDWLR	1.98

Variant	protein stability index
QEKLQVLMAEGLHPAVKVFLDWLR	2.6
QEKLQVLMAEGLRPAVKVFLDWLR	1.37
QEKLQVLMAEGLYPAVKVFLDWLR	3.17
QEKLQVLMAEGLFPAVKVFLDWLR	1.38
QEKLQVLMAEGLQPAVKVFLDWLR	1.71
QEKLQVLMAEGLPPAVKVFLDWLR	2.6
QEKLQVLMAEGLKPAVKVFLDWLR	1.62
QEKLQVLMAEGLEPAVKVFLDWLR	1.09
QEKLQVLMAEGLNPAVKVFLDWLR	1.99
QEKLQVLMAEGLVPAVKVFLDWLR	2.04
QEKLQVLMAEGLTPAVKVFLDWLR	1.29
QEKLQVLMAEGLAPAVKVFLDWLR	2.36
QEKLQVLMAFGLLPAVKVFLDWLR	1.86
QEKLQVLMACGLLPAVKVFLDWLR	2.58
QEKLQVLMALGLLPAVKVFLDWLR	1.93
QEKLQVLMAAGLLPAVKVFLDWLR	2.7
QEKLQVLMAVGLLPAVKVFLDWLR	1.76
QEKLQVLMADGLLPAVKVFLDWLR	1.44
QEKLQVLMAYGLLPAVKVFLDWLR	1.56
QEKLQVLMARGLLPAVKVFLDWLR	1.95
QEKLQVLMAQGLLPAVKVFLDWLR	2.35
QEKLQVLMASGLLPAVKVFLDWLR	2.61
QEKLQVLMAHGLLPAVKVFLDWLR	3.21
QEKLQVLMAPGLLPAVKVFLDWLR	2.12

Variant	protein stability index
QEKLQVLMAWGLLPAVKVFLDWLR	1.65
QEKLQVLMATGLLPAVKVFLDWLR	2.89
QEKLQVLMAMGLLPAVKVFLDWLR	1.85
QEKLQVLMAIGLLPAVKVFLDWLR	1.4
QEKLQVLMAEGLLPMVKVFLDWLR	2.05
QEKLQVLMAEGLLPCVKVFLDWLR	2.72
QEKLQVLMAEGLLPEVKVFLDWLR	2
QEKLQVLMAEGLLPWVKVFLDWLR	1.88
QEKLQVLMAEGLLPIVKVFLDWLR	1.76
QEKLQVLMAEGLLPLVKVFLDWLR	1.63
QEKLQVLMAEGLLPVVKVFLDWLR	1.88
QEKLQVLMAEGLLPQVKVFLDWLR	2.21
QEKLQVLMAEGLLPGVKVFLDWLR	2.45
QEKLQVLMAEGLLPPVKVFLDWLR	1.86
QEKLQVLMAEGLLPFVKVFLDWLR	2.42
QEKLQVLMAEGLLPRVKVFLDWLR	4.13
QEKLQVLMAEGLLPYVKVFLDWLR	2.5
QEKLQVLMAEGLLPHVKVFLDWLR	1.99
QEKLQVLMAEGLLPSVKVFLDWLR	2.39
QEKLQVLMAEGLLPDVKVFLDWLR	1.66
QEKLQVLMAEGLLPNVKVFLDWLR	2.4
QEKLQVLMAEGLLPTVKVFLDWLR	3.37
QEKLQVLMAEGLLPAQKVFLDWLR	1.86
QEKLQVLMAEGLLPAGKVFLDWLR	1.15

Variant	protein stability index
QEKLQVLMAEGLLPAEKVFLDWLR	2.15
QEKLQVLMAEGLLPAAKVFLDWLR	1.67
QEKLQVLMAEGLLPAIKVFLDWLR	2.16
QEKLQVLMAEGLLPAHKVFLDWLR	1.93
QEKLQVLMAEGLLPANKVFLDWLR	1.75
QEKLQVLMAEGLLPARKVFLDWLR	2.25
QEKLQVLMAEGLLPADKVFLDWLR	1.95
QEKLQVLMAEGLLPAMKVFLDWLR	1.85
QEKLQVLMAEGLLPAWKVFLDWLR	1.96
QEKLQVLMAEGLLPAFKVFLDWLR	2.56
QEKLQVLMAEGLLPATKVFLDWLR	2.46
QEKLQVLMAEGLLPAYKVFLDWLR	2.29
QEKLQVLMAEGLLPACKVFLDWLR	1.98
QEKLQVLMAEGLLPASKVFLDWLR	2.31
QEKLQVLMAEGLLPALKVFLDWLR	1.39
QEKLQVLMAEGLLPAPKVFLDWLR	3.13
QEKLQVLMAEGLLPAKKVFLDWLR	2.04
QEKLQVLMAEGMLPAVKVFLDWLR	1.22
QEKLQVLMAEGNLPAVKVFLDWLR	1.82
QEKLQVLMAEGKLPAVKVFLDWLR	2.34
QEKLQVLMAEGQLPAVKVFLDWLR	2.1
QEKLQVLMAEGGLPAVKVFLDWLR	1.79
QEKLQVLMAEGELPAVKVFLDWLR	2.32
QEKLQVLMAEGYLPAVKVFLDWLR	2.32

Variant	protein stability index
QEKLQVLMAEGDLPAVKVFLDWLR	2.16
QEKLQVLMAEGRLPAVKVFLDWLR	3.06
QEKLQVLMAEGALPAVKVFLDWLR	1.61
QEKLQVLMAEGHLPAVKVFLDWLR	1.25
QEKLQVLMAEGWLPAVKVFLDWLR	1.8
QEKLQVLMAEGILPAVKVFLDWLR	2.14
QEKLQVLMAEGVLPAVKVFLDWLR	1.39
QEKLQVLMAEGFLPAVKVFLDWLR	1.91
QEKLQVLMAEGTLPAVKVFLDWLR	2.21
QEKLQVLMAEGPLPAVKVFLDWLR	3.4
QEKLQVLMAEGSLPAVKVFLDWLR	2.42
QEKLQVLMAEGLLPAVQVFLDWLR	1.44
QEKLQVLMAEGLLPAVYVFLDWLR	2.78
QEKLQVLMAEGLLPAVSVFLDWLR	1.82
QEKLQVLMAEGLLPAVFVFLDWLR	1.91
QEKLQVLMAEGLLPAVWVFLDWLR	2.18
QEKLQVLMAEGLLPAVEVFLDWLR	1.72
QEKLQVLMAEGLLPAVHVFLDWLR	1.71
QEKLQVLMAEGLLPAVDVFLDWLR	1.27
QEKLQVLMAEGLLPAVRVFLDWLR	2.07
QEKLQVLMAEGLLPAVNVFLDWLR	2.26
QEKLQVLMAEGLLPAVVVFLDWLR	1.52
QEKLQVLMAEGLLPAVCVFLDWLR	1.86
QEKLQVLMAEGLLPAVPVFLDWLR	1.2

Variant	protein stability index
QEKLQVLMAEGLLPAVLVFLDWLR	2.03
QEKLQVLMAEGLLPAVIVFLDWLR	2.31
QEKLQVLMAEGLLPAVMVFLDWLR	1.79
QEKLQVLMAEGLLPAVGVFLDWLR	1.91
QEKLQVLMAEGLLPAVTVFLDWLR	2.05
QEKLQVLMAEGLLPAVAVFLDWLR	2.99
QEKLQVLMAEGLLNAVKVFLDWLR	2.38
QEKLQVLMAEGLLQAVKVFLDWLR	1.83
QEKLQVLMAEGLLVAVKVFLDWLR	1.42
QEKLQVLMAEGLLWAVKVFLDWLR	2.46
QEKLQVLMAEGLLAAVKVFLDWLR	2.25
QEKLQVLMAEGLLDAVKVFLDWLR	2.29
QEKLQVLMAEGLLMAVKVFLDWLR	1.75
QEKLQVLMAEGLLLAVKVFLDWLR	1.67
QEKLQVLMAEGLLYAVKVFLDWLR	2.43
QEKLQVLMAEGLLKAVKVFLDWLR	3.27
QEKLQVLMAEGLLFAVKVFLDWLR	1.97
QEKLQVLMAEGLLSAVKVFLDWLR	2.32
QEKLQVLMAEGLLEAVKVFLDWLR	1.96
QEKLQVLMAEGLLTAVKVFLDWLR	2.54
QEKLQVLMAEGLLCAVKVFLDWLR	1.7
QEKLQVLMAEGLLGAVKVFLDWLR	1.17
QEKLQVLMAEGLLIAVKVFLDWLR	1.19
QEKLQVLMAEGLLRAVKVFLDWLR	1.69

Variant	protein stability index
QEKLQVLMDEGLLPAVKVFLDWLR	1.76
QEKLQVLMREGLLPAVKVFLDWLR	4.4
QEKLQVLMMEGLLPAVKVFLDWLR	1.81
QEKLQVLMHEGLLPAVKVFLDWLR	2.41
QEKLQVLMIEGLLPAVKVFLDWLR	1.82
QEKLQVLMPEGLLPAVKVFLDWLR	2.41
QEKLQVLMQEGLLPAVKVFLDWLR	2.82
QEKLQVLMTEGLLPAVKVFLDWLR	1.42
QEKLQVLMFEGLLPAVKVFLDWLR	1.78
QEKLQVLMEEGLLPAVKVFLDWLR	2.95
QEKLQVLMLEGLLPAVKVFLDWLR	3.66
QEKLQVLMNEGLLPAVKVFLDWLR	3.04
QEKLQVLMYEGLLPAVKVFLDWLR	1.98
QEKLQVLMVEGLLPAVKVFLDWLR	1.58
QEKLQVLMKEGLLPAVKVFLDWLR	2.21
QEKLQVLMWEGLLPAVKVFLDWLR	1.78
QEKLQVLMSEGLLPAVKVFLDWLR	2.19
QEKLQVLMAEWLLPAVKVFLDWLR	2.23
QEKLQVLMAEALLPAVKVFLDWLR	2.28
QEKLQVLMAEQLLPAVKVFLDWLR	1.69
QEKLQVLMAERLLPAVKVFLDWLR	2.04
QEKLQVLMAEELLPAVKVFLDWLR	1.6
QEKLQVLMAETLLPAVKVFLDWLR	2.44
QEKLQVLMAEYLLPAVKVFLDWLR	2.29

Variant	protein stability index
QEKLQVLMAELLLPAVKVFLDWLR	1.6
QEKLQVLMAENLLPAVKVFLDWLR	1.52
QEKLQVLMAEVLLPAVKVFLDWLR	2.56
QEKLQVLMAEPLLPAVKVFLDWLR	2.2
QEKLQVLMAEKLLPAVKVFLDWLR	1.6
QEKLQVLMAEMLLPAVKVFLDWLR	2.38
QEKLQVLMAEFLLPAVKVFLDWLR	1.84
QEKLQVLMAESLLPAVKVFLDWLR	1.99
QEKLQVLMAECLLPAVKVFLDWLR	1.99
QEKLQVLMAEHLLPAVKVFLDWLR	1.99
QEKLQVLMAEDLLPAVKVFLDWLR	1.64
QEKLQVLMAEILLPAVKVFLDWLR	1.81
QEKLQVLMAEGLLPAVKVILDWLR	2.39
QEKLQVLMAEGLLPAVKVGLDWLR	3.15
QEKLQVLMAEGLLPAVKVELDWLR	1.53
QEKLQVLMAEGLLPAVKVCLDWLR	2.4
QEKLQVLMAEGLLPAVKVALDWLR	2.97
QEKLQVLMAEGLLPAVKVKLDWLR	2.35
QEKLQVLMAEGLLPAVKVDLDWLR	2.14
QEKLQVLMAEGLLPAVKVHLDWLR	1.31
